Data on 1 molecule can be found in PMC9864931 (Vaccines, 2022).

In the assay the target is E. coli-produced Wuhan-Hu1 RBD (receptor binding domain of the SARS-CoV-2 spike protein, a.a. 319-542) (SARS-CoV-2 (Wuhan-Hu1), UniProt P0DTC2). The experiment in a line: ELISA. The following applies: both partners purified.

B1: mAb WRAIR-2057 (antibody, V domains shown)
VH: EVQLVQSGAEVKKPGESLKISCKGSGYSFISYWIAWVRQMPGKGLEWMGIIYPGDSDTTYSPSFQGQVTISADKSISTAYLQWSSLKASDTAIYYCARLLYYSDSSPLDSWGQGTLVTVSS
VL: DIQMTQSPSSLSASVGDRVTITCRASQSISTYLNWYQQKPGKAPNLLIYAASSLQSGVPSRFSGSGSGTDFTLTISSLQPEDFATYYCQQSHSTPRTFGPGTKVDIK
As to B1, the binding result was “binds”.
